Legend:
[1] = target: the molecule itself; assay: SEC; without ATP; proteins in disassembly buffer (1.5 M GuHCl), GuHCl removed by dialysis against reassembly buffer; analytical Superdex 200 10/300 GL; peak fractions by SDS-PAGE
His-tagged SRPK1WT = target: T1, His-tagged SRPK1WT (UniProt Q96SB4 1-655); assay: MST; 200 nM N-terminally His-tagged SRPK1/2 labelled with RED-tris-NTA as target; GST-CpY132A as ligand in 2-fold serial dilution from 20 μM to 0.61 nM; room temperature; Monolith NT.115, MST power 40%; conditions: both partners purified
T1 construct: serine-arginine protein kinase 1 (SRPK1), wild type; Labelled on the His tag with RED-tris-NTA for MST; also called wild-type SRPK1; source: recombinant, purified; not shown: His tag, N-terminal, kept

[2] = target: T2, His-tagged SRPK2WT (full-length SRPK2) (UniProt P78362 1-688); assay: as above; conditions: both partners purified
T2 construct: serine-arginine protein kinase 2 (SRPK2), full length, wild type; Cloned in pET-15b; Labelled on the His tag with RED-tris-NTA for MST; also called His-SRPK2WT; wild-type SRPK2; source: E. coli BL21(DE3)pLysS, purified (Ni-NTA, SEC); not shown: His tag, N-terminal, kept

[3] = target: the molecule itself; assay: SEC; SRPK2ΔS1/CpWT complex supplemented with 5 mM MgCl2 and 0.1 mM ATP; analytical Superdex 200 10/300 GL; void-volume peak also imaged by negative-stain EM

T2 sequence (P78362 whole entry): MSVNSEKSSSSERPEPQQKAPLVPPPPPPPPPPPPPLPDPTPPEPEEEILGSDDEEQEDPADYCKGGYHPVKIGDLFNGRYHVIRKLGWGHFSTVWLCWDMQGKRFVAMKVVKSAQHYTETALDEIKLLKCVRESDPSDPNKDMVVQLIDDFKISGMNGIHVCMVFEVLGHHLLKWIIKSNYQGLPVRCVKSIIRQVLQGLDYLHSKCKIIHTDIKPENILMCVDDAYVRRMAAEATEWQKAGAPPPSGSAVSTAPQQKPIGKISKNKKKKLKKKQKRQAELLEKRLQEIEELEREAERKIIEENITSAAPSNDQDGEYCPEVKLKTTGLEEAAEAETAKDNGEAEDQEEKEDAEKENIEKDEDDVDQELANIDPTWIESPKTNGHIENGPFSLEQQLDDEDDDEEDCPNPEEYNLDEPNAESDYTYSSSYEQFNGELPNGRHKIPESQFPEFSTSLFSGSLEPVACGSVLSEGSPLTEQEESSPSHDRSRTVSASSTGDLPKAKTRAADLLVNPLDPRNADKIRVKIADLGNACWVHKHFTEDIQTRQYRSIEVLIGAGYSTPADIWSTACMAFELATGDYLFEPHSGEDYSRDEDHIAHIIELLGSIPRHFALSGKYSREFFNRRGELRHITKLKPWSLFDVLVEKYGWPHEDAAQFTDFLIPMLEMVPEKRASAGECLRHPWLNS
T1 sequence (Q96SB4 whole entry): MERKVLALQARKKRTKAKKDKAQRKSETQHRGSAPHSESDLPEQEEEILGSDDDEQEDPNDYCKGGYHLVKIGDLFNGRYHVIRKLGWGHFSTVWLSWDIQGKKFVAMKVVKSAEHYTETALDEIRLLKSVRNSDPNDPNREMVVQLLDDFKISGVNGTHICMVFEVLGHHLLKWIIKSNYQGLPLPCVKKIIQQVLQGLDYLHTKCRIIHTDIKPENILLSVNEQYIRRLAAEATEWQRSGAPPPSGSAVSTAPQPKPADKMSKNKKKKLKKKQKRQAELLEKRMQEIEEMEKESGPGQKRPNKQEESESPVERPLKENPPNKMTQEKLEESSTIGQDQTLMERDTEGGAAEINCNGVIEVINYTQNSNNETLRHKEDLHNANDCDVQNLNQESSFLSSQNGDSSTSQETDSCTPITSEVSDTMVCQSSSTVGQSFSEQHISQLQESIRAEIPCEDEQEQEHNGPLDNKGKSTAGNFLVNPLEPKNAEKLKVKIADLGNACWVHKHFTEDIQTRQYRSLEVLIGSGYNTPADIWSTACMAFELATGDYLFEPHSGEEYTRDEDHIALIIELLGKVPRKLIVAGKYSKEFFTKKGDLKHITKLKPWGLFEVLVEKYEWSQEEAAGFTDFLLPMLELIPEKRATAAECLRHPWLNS

B1: His-tagged CpWT (wild-type hepatitis B core protein) (natural protein)
chain: MDIDPYKEFGATVELLSFLPSDFFPSVRDLLDTASALYREALESPEHCSPHHTALRQAILCWGELMTLATWVGNNLEDPASRDLVVNYVNTNVGLKIRQLLWFHISCLTFGRETVLEYLVSFGVWIRTPPAYRPPNAPILSTLPETTVVRRRDRGRSPRRRTPSPRRRRSPSPRRRRSQSRESQC
notes: Hepatitis B virus core protein (Cp), subtype adw2, full length, wild type; Kept as a dimer in GuHCl; assembles into capsids (about 35 nm, typical of T = 4) when GuHCl or urea is dialysed away; The His tag is seen as extra density at the 3-fold vertices of the capsid maps; Cloned in pET-15b; also called His-CpWT; CpWT dimer; not shown: His tag, N-terminal, kept
- binding result [1]: binds

B2: GST-tagged CpY132A (hepatitis B core protein with the mutation Y132A) (natural protein)
chain: MDIDPYKEFGATVELLSFLPSDFFPSVRDLLDTASALYREALESPEHCSPHHTALRQAILCWGELMTLATWVGNNLEDPASRDLVVNYVNTNVGLKIRQLLWFHISCLTFGRETVLEYLVSFGVWIRTPPAARPPNAPILSTLPETTVVRRRDRGRSPRRRTPSPRRRRSPSPRRRRSQSRESQC
notes: Hepatitis B virus core protein (Cp), subtype adw2, full length (assembly domain 1-149, ARD 150-185); Cloned in pGEX-4T-2; also called GST–CpY132A; GST-CpY132A; source: E. coli BL21(DE3)pLysS, purified (glutathione resin); not shown: GST, N-terminal, kept
- Kd (His-tagged SRPK1WT): 83.6 nM
- Kd [2]: 101 nM

B3: CpWT phosphorylated by SRPK2ΔS1 (after addition of ATP/Mg2+) (natural protein)
chain: MDIDPYKEFGATVELLSFLPSDFFPSVRDLLDTASALYREALESPEHCSPHHTALRQAILCWGELMTLATWVGNNLEDPASRDLVVNYVNTNVGLKIRQLLWFHISCLTFGRETVLEYLVSFGVWIRTPPAYRPPNAPILSTLPETTVVRRRDRGRSPRRRTPSPRRRRSPSPRRRRSQSRESQC
modifications: phosphorylated by SRPK2ΔS1 with ATP/Mg2+; sites and extent not stated for this sample
notes: Hepatitis B virus core protein (Cp), subtype adw2, full length, wild type; also called phosphorylated Cp; capsid formed after the addition of ATP/Mg2+; source: E. coli BL21(DE3)pLysS, purified; SRPK2ΔS1/CpWT complex supplemented with 5 mM MgCl2 and 0.1 mM ATP
- binding result [3]: binds
